# Source: patent US20260193335A1 (ZOETIS SERVICES, published 2026)
# Molecular target: T1, Feline FcRn (complex of FcRn-α subunit and β-microglobulin, C-terminal His tag) (feline, UniProt A0ABI7ZNY9 23-296; Q5MGS7 21-118)
# T1 construct: treated here as one molecule
# Assay: SPR Biacore, FcRn on sensor, pH 6; pH 6
# Method: As discussed in the above Example section, Feline FcRn was isolated, prepared and mutant Fc IgGs were assayed against feline FcRn according to Strietzelg et. al. Standard RACE PCR was used to amplify feline FcRn-α subunit and β-microglobulin. FcRn-α subunit and β-microglobulin were co-transfected into HEK 293 cells and the FcRn complex was purified by IMAC affinity purification via the c-terminal His tag. KD's were measured by Biacore 3000 or Biacore T200 (GE Healthcare, Pittsburgh, PA, USA) using a CM5 sensor chip.
# FcRn was captured on the surface of the sensor using a modified SA capture method. 10 mM MES; 150 mM NaCl; 0.005% Tween20; 0.5 mg/mL BSA; pH6 was used as capture, method running buffer and titrations. 1×HBS-P, 0.5 mg/mL BSA; pH7.4 was also used for method running buffer and titrations. Fc mutant IgGs were flowed over receptor surfaces and affinity was determined using T200 evaluation software or Biacore Insight Evaluation software. Blank runs containing buffer only were subtracted out from all runs. Flow cells were regenerated using 50 mM Tris pH8 or pH9. Runs were performed at 15° C.
row,Binder,Kd [µM]
1,"mAb6 anti-TGFβ antibody ZTS-120-1, wildtype (antibody, also called mAb6 ID No. 12) heavy: QVQLVQSGAEVKKPGSSVKVSCKASGYTFSSNVISWVRQAPGQGLEWMGGVIPIVDIANYAQRFKGRVTITADESTSTTYMELSSLRSEDTAVYYCASTLGLVLDAMDYWGQGTLVTVSSASTTAPSVFPLAPSCGTTSGATVALACLVLGYFPEPVTVSWNSGALTSGVHTFPAVLQASGLYSLSSMVTVPSSRWLSDTFTCNVAHPPSNTKVDKTVRKTDHPPGPKPCDCPKCPPPEMLGGPSIFIFPPKPKDTLSISRTPEVTCLVVDLGPDDSDVQITWFVDNTQVYTAKTSPREEQFNSTYRVVSVLPILHQDWLKGKEFKCKVNSKSLPSPIERTISKAKGQPHEPQVYVLPPAQEELSRNKVSVTCLIKSFHPPDIAVEWEITGQPEPENNYRTTPPQLDSDGTYFVYSKLSVDRSHWQRGNTYTCSVSHEALHSHHTQKSLTQSPGK light: ETVLTQSPGTLSLSPGERATLSCRASQSLGSSYLAWYQQKPGQAPRLLIYGASSRAPGIPDRFSGSGSGTDFTLTISRLEPEDFAVYYCQQYADSPITFGQGTKLEIK",0.0352
2,"mAb6 anti-TGFβ antibody ZTS-120-2, wildtype (antibody, also called mAb6 ID No. 14) heavy: QVLLVQSGADVRKPGASVKIFCKASGYTFTSNVISWVRQTPAQGFEWMGGVIPIVDIANYAQRFKGRLVLTADTSTNTAYMELRSLKSADTAVYYCASTLGLVLDAMDYWGQGSLVTVSSASTTAPSVFPLAPSCGTTSGATVALACLVLGYFPEPVTVSWNSGALTSGVHTFPAVLQASGLYSLSSMVTVPSSRWLSDTFTCNVAHPPSNTKVDKTVRKTDHPPGPKPCDCPKCPPPEMLGGPSIFIFPPKPKDTLSISRTPEVTCLVVDLGPDDSDVQITWFVDNTQVYTAKTSPREEQFNSTYRVVSVLPILHQDWLKGKEFKCKVNSKSLPSPIERTISKAKGQPHEPQVYVLPPAQEELSRNKVSVTCLIKSFHPPDIAVEWEITGQPEPENNYRTTPPQLDSDGTYFVYSKLSVDRSHWQRGNTYTCSVSHEALHSHHTQKSLTQSPGK light: EIQMTQSPSSLSASPGDRVTITCRASQSLGSSYLAWYQQKPGKVPKLLIYGASSRAPGVPSRFSGSGSGTDFTLTISSLEPEDAATYYCQQYADSPITFGQGTKLEIK",0.0223
3,"mAb6 anti-TGFβ antibody ZTS-120-5, wildtype (antibody, also called mAb6 ID No. 20) heavy: DVQLVESGGDLVKPGGSLRLTCVASGYTFSSNVMHWVRQAPGKGLQWVAYVIPIVDIAYYADSVKGRFTISIDNSKNTLYLQMNSLKTEDTATYYCARTLGLVLDAMDYWGQGTLVTVSSASTTAPSVFPLAPSCGTTSGATVALACLVLGYFPEPVTVSWNSGALTSGVHTFPAVLQASGLYSLSSMVTVPSSRWLSDTFTCNVAHPPSNTKVDKTVRKTDHPPGPKPCDCPKCPPPEMLGGPSIFIFPPKPKDTLSISRTPEVTCLVVDLGPDDSDVQITWFVDNTQVYTAKTSPREEQFNSTYRVVSVLPILHQDWLKGKEFKCKVNSKSLPSPIERTISKAKGQPHEPQVYVLPPAQEELSRNKVSVTCLIKSFHPPDIAVEWEITGQPEPENNYRTTPPQLDSDGTYFVYSKLSVDRSHWQRGNTYTCSVSHEALHSHHTQKSLTQSPGK light: EIQMTQSPSSLSASPGDRVTITCRASQSLGSSYLAWYQQKPGKVPKLLIYGASSRAPGVPSRFSGSGSGTDFTLTISSLEPEDAATYYCQQYADSPITFGQGTKLEIK",0.0316
4,"mAb6 anti-TGFβ antibody ZTS-120-6, wildtype (antibody, also called mAb6 ID No. 22) heavy: QVLLVQSGADVRKPGASVKIFCKASGYTFSSNVMHWVRQTPAQGFEWMGSVIPIVDIATYARRFQGRLVLTADTSTNTAYMELRSLKSADTAVYYCARTLGLVLDAMDYWGQGSLVTVSSASTTAPSVFPLAPSCGTTSGATVALACLVLGYFPEPVTVSWNSGALTSGVHTFPAVLQASGLYSLSSMVTVPSSRWLSDTFTCNVAHPPSNTKVDKTVRKTDHPPGPKPCDCPKCPPPEMLGGPSIFIFPPKPKDTLSISRTPEVTCLVVDLGPDDSDVQITWFVDNTQVYTAKTSPREEQFNSTYRVVSVLPILHQDWLKGKEFKCKVNSKSLPSPIERTISKAKGQPHEPQVYVLPPAQEELSRNKVSVTCLIKSFHPPDIAVEWEITGQPEPENNYRTTPPQLDSDGTYFVYSKLSVDRSHWQRGNTYTCSVSHEALHSHHTQKSLTQSPGK light: DIVLTQPPSLSVNLGQTARITCRASQSLGSSYLAWYQQKPGQAPKLVTYGASSRAPGIPDRFSGTNSGITATLTISGARAEDEADYYCQQYADSPITFGQGTKLEIK",0.0143
5,"mAb6 anti-TGFβ antibody ZTS-120-3, wildtype (antibody, also called mAb6 ID No. 16) heavy: QVLLVQSGAEVRTPGASVKIFCKASGYGFTSNVISWVRQSPAQGLEWMGGVIPIVDIANYAQRFKGRLTLTADTSTDTAYMELSSLRSADTAMYYCASTLGLVLDAMDYWGQGTLVTVSSASTTAPSVFPLAPSCGTTSGATVALACLVLGYFPEPVTVSWNSGALTSGVHTFPAVLQASGLYSLSSMVTVPSSRWLSDTFTCNVAHPPSNTKVDKTVRKTDHPPGPKPCDCPKCPPPEMLGGPSIFIFPPKPKDTLSISRTPEVTCLVVDLGPDDSDVQITWFVDNTQVYTAKTSPREEQFNSTYRVVSVLPILHQDWLKGKEFKCKVNSKSLPSPIERTISKAKGQPHEPQVYVLPPAQEELSRNKVSVTCLIKSFHPPDIAVEWEITGQPEPENNYRTTPPQLDSDGTYFVYSKLSVDRSHWQRGNTYTCSVSHEALHSHHTQKSLTQSPGK light: EIQMTQSPSSLSASPGDRVTITCRASQSLGSSYLAWYQQKPGKVPKLLIYGASSRAPGVPSRFSGSGSGTDFTLTISSLEPEDAATYYCQQYADSPITFGQGTKLEIK",0.0205
6,"mAb6 anti-TGFβ antibody ZTS-120-4, wildtype (antibody, also called mAb6 ID No. 18) heavy: QVLLVQSGADVRKPGASVKIFCKASGYTFSSNVMHWVRQTPAQGFEWMGSVIPIVDIATYARRFQGRLVLTADTSTNTAYMELRSLKSADTAVYYCARTLGLVLDAMDYWGQGSLVTVSSASTTAPSVFPLAPSCGTTSGATVALACLVLGYFPEPVTVSWNSGALTSGVHTFPAVLQASGLYSLSSMVTVPSSRWLSDTFTCNVAHPPSNTKVDKTVRKTDHPPGPKPCDCPKCPPPEMLGGPSIFIFPPKPKDTLSISRTPEVTCLVVDLGPDDSDVQITWFVDNTQVYTAKTSPREEQFNSTYRVVSVLPILHQDWLKGKEFKCKVNSKSLPSPIERTISKAKGQPHEPQVYVLPPAQEELSRNKVSVTCLIKSFHPPDIAVEWEITGQPEPENNYRTTPPQLDSDGTYFVYSKLSVDRSHWQRGNTYTCSVSHEALHSHHTQKSLTQSPGK light: EIQMTQSPSSLSASPGDRVTITCRASQSLGSSYLAWYQQKPGKVPKLLIYGASSRAPGVPSRFSGSGSGTDFTLTISSLEPEDAATYYCQQYADSPITFGQGTKLEIK",0.0196

# The next lines start with the values.
row,Kd [µM],Binder
1,0.0302,"mAb6 anti-TGFβ antibody ZTS-120-7, wildtype (antibody, also called mAb6 ID No. 24) heavy: DVQLVESGGDLVKPGGSLRLTCVASGYTFSSNVMHWVRQAPGKGLQWVAYVIPIVDIAYYADSVKGRFTISIDNSKNTLYLQMNSLKTEDTATYYCARTLGLVLDAMDYWGQGTLVTVSSASTTAPSVFPLAPSCGTTSGATVALACLVLGYFPEPVTVSWNSGALTSGVHTFPAVLQASGLYSLSSMVTVPSSRWLSDTFTCNVAHPPSNTKVDKTVRKTDHPPGPKPCDCPKCPPPEMLGGPSIFIFPPKPKDTLSISRTPEVTCLVVDLGPDDSDVQITWFVDNTQVYTAKTSPREEQFNSTYRVVSVLPILHQDWLKGKEFKCKVNSKSLPSPIERTISKAKGQPHEPQVYVLPPAQEELSRNKVSVTCLIKSFHPPDIAVEWEITGQPEPENNYRTTPPQLDSDGTYFVYSKLSVDRSHWQRGNTYTCSVSHEALHSHHTQKSLTQSPGK light: DIVLTQPPSLSVNLGQTARITCRASQSLGSSYLAWYQQKPGQAPKLVTYGASSRAPGIPDRFSGTNSGITATLTISGARAEDEADYYCQQYADSPITFGQGTKLEIK"
2,0.0443,"mAb6 anti-TGFβ antibody ZTS-120-9, wildtype (antibody, also called mAb6 ID No. 28) heavy: DVQLVESGGDLVKPGGSLRLTCVASGYTFSSNVMHWVRQAPGKGLQWVAYVIPIVDIAYYADSVKGRFTISIDNSKNTLYLQMNSLKTEDTATYYCARTLGLVLDAMDYWGQGTLVTVSSASTTAPSVFPLAPSCGTTSGATVALACLVLGYFPEPVTVSWNSGALTSGVHTFPAVLQASGLYSLSSMVTVPSSRWLSDTFTCNVAHPPSNTKVDKTVRKTDHPPGPKPCDCPKCPPPEMLGGPSIFIFPPKPKDTLSISRTPEVTCLVVDLGPDDSDVQITWFVDNTQVYTAKTSPREEQFNSTYRVVSVLPILHQDWLKGKEFKCKVNSKSLPSPIERTISKAKGQPHEPQVYVLPPAQEELSRNKVSVTCLIKSFHPPDIAVEWEITGQPEPENNYRTTPPQLDSDGTYFVYSKLSVDRSHWQRGNTYTCSVSHEALHSHHTQKSLTQSPGK light: DIVMTQSPGSLAGSPGQQVTMNCRASQSLGSSYLAWYQQKPGQHPELLIYGASSRAPGVPDRFSGSGSGTDFTLTISNLQAEDVANYYCQQYADSPITFGQGTKLEIK"
3,0.0357,"mAb6 anti-TGFβ antibody ZTS-120-8, wildtype (antibody, also called mAb6 ID No. 26) heavy: QVLLVQSGADVRKPGASVKIFCKASGYTFTSNVISWVRQTPAQGFEWMGGVIPIVDIANYAQRFKGRLVLTADTSTNTAYMELRSLKSADTAVYYCASTLGLVLDAMDYWGQGSLVTVSSASTTAPSVFPLAPSCGTTSGATVALACLVLGYFPEPVTVSWNSGALTSGVHTFPAVLQASGLYSLSSMVTVPSSRWLSDTFTCNVAHPPSNTKVDKTVRKTDHPPGPKPCDCPKCPPPEMLGGPSIFIFPPKPKDTLSISRTPEVTCLVVDLGPDDSDVQITWFVDNTQVYTAKTSPREEQFNSTYRVVSVLPILHQDWLKGKEFKCKVNSKSLPSPIERTISKAKGQPHEPQVYVLPPAQEELSRNKVSVTCLIKSFHPPDIAVEWEITGQPEPENNYRTTPPQLDSDGTYFVYSKLSVDRSHWQRGNTYTCSVSHEALHSHHTQKSLTQSPGK light: DIVMTQSPGSLAGSPGQQVTMNCRASQSLGSSYLAWYQQKPGQHPELLIYGASSRAPGVPDRFSGSGSGTDFTLTISNLQAEDVANYYCQQYADSPITFGQGTKLEIK"
